In patent US20050118183A1 (IMMUNOGEN, published 2005):

Columns and labels:
CD33 (human) [1] = molecular target: CD33 (human) (UniProt P20138); test: direct binding on HL-60 whole cells; direct on cells
CD33 (human) [2] = molecular target: CD33 (human) (UniProt P20138); test: direct binding on HL-60 membranes; direct on membranes
CD33 (human) [3] = molecular target: CD33 (human) (UniProt P20138); test: competitive binding on HL-60 membranes; competitive on membranes
CD33 = molecular target: T1, CD33 (human, UniProt P20138 18-364); test: flow cytometry on HL-60 cells
T1 construct: whole, on cells; Presented on U-937 cells, HL-60 whole cells, dried HL-60 plasma membranes, THP-1 cells and CD33-transfected 3T3 murine fibroblasts; also called CD33 antigen; human CD33
T1 sequence (P20138 18-364): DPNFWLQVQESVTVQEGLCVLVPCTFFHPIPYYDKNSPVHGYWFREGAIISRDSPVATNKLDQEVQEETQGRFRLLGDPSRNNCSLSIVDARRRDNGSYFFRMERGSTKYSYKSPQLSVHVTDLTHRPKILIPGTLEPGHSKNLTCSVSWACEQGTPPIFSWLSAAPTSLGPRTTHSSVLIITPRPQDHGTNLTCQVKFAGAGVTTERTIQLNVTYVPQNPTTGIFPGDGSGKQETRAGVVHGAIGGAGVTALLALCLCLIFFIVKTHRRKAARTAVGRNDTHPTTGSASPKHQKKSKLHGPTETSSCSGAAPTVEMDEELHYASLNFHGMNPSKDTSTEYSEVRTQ
Method: HL-60 cells were incubated with various concentrations of either My9-6 antibody or My9-6-DM1. The cells were then washed and incubated with a secondary FITC-labeled anti-murine IgG antibody. Following an additional wash, cells were fixed with 2% formaldehyde and cell-associated fluorescence was quantified using a BD FACScan flow cytometer.

Chain of CD33 (human) (P20138 18-364): as above

| Molecule | Kd (CD33 (human) [1]) [nM] | Kd (CD33 (human) [2]) [nM] | Kd (CD33 (human) [3]) [nM] | binding result (CD33) |
| --- | --- | --- | --- | --- |
| murine My9-6 antibody | 1.1 | 0.0513 | 0.174 | – |
| My9-6-DM1 immunoconjugate (antibody, IgG1, V domains shown, DM1 (thiol-containing maytansinoid) linked by disulfide through SPP; 3-5 pyridyldithio groups introduced per molecule of antibody; residues and chain not stated) VH: QVQLQQPGAEVVKPGASVKMSCKASGYTFTSYYIHWIKQTPGQGLEWVGVIYPGNDDISYNQKFKGKATLTADKSSTTAYMQLSSLTSEDSAVYYCAREVRLRYFDVWGAGTTVTVSS VL: NIMLTQSPSSLAVSAGEKVTMSCKSSQSVFFSSSQKNYLAWYQQIPGQSPKLLIYWASTRESGVPDRFTGSGSGTDFTLTISSVQSEDLAIYYCHQYLSSRTFGGGTKLEIKR | – | – | – | binds |
